Test results as given in patent US9017951B2, “Anti-FcRH5 antibodies and immunoconjugates and methods of use” (Genentech, Inc., priority 2009, dated 2015).

T1: human FcRH5 (Homo sapiens, UniProt Q96RD9)
T1 construct: expressed in transfected cells; host or cells: OPM2 multiple myeloma line per text
T1 sequence (Q96RD9 16-977 Y267H/G418D/V466I/L733P/S890P): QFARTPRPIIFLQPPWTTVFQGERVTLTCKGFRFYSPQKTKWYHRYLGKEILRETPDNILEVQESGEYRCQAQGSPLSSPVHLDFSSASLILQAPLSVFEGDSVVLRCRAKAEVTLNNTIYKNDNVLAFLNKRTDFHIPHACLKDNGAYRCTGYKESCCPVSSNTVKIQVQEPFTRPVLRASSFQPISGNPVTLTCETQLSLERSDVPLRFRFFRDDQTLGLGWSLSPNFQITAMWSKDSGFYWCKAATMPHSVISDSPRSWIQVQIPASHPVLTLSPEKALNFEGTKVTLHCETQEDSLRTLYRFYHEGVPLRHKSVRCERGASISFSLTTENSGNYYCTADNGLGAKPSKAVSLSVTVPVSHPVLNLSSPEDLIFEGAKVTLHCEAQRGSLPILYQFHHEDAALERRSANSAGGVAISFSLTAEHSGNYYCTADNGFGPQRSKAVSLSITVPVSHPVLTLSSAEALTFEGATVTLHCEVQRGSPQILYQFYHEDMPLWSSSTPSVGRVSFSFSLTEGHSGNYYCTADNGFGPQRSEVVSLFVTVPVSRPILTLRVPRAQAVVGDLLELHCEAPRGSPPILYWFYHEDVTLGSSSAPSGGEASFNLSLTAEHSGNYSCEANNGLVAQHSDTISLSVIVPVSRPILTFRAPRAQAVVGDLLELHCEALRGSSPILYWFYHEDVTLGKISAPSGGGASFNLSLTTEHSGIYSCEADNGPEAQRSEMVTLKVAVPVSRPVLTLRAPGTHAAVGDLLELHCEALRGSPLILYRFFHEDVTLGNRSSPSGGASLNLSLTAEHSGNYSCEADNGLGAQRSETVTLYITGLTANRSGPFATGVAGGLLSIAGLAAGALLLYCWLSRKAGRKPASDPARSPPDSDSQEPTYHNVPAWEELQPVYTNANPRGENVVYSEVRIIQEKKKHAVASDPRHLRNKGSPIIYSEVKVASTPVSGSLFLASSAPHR


How the values were obtained:
cynomolgus FcRH5 = experiment: Cyno X-reactivity (FACS) on stable transfected cells; assay type: binding; conditions: SVT2 cells stably expressing cynoFcRH5; 1.0, 0.1 or 0.01 ug Ab per million cells
Chain of cynomolgus FcRH5 (as listed by the source): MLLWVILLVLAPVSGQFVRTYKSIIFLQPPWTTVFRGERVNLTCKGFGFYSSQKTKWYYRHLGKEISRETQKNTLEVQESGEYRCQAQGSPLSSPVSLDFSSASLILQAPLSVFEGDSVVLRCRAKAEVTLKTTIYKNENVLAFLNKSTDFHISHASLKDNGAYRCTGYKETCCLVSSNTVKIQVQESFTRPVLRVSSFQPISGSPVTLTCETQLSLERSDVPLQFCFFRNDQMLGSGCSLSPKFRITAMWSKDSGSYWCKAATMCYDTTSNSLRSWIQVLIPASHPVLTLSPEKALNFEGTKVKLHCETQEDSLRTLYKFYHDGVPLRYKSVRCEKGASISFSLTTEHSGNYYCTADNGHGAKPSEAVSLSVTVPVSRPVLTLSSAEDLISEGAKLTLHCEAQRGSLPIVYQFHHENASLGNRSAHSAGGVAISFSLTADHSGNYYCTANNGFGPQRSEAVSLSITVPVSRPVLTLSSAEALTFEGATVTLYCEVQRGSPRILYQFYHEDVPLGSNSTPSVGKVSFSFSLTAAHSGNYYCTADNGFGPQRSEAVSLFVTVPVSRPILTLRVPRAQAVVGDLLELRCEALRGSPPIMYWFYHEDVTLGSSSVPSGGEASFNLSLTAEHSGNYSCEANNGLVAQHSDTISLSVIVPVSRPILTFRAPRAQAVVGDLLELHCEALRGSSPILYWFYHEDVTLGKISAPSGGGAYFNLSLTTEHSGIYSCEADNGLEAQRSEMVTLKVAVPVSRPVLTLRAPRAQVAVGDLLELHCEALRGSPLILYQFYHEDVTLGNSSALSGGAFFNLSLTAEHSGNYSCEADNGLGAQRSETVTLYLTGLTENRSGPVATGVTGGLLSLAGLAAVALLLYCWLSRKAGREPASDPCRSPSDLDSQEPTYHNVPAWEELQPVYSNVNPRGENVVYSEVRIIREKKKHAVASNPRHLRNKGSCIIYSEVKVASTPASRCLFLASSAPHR
Procedure: For additional FACS analysis of FcRH5 antibodies, 1.0 μg, 0.1 μg or 0.01 μg of antibody was titrated per million cells of BJAB cells stably expressing huFcRH5 and SVT2 cells stably expressing cynoFcRH5. Briefly, approximately 10^6 cells in 100 μl were incubated with varying amounts (1.0 ug, 01. ug or 0.01 ug) of murine Ab (‘mu1H4, mu4D10, mu6H1, mu7D11, mu9E2, mu10A8, mu140F5, or mu13G9) per million cells of BJAB cells stably expressing huFcRH5 and SVT2 cells stably expressing cynoFcRH5. Incubation with 1.0 ug/10^6 cells of the appropriate Mu IgG isotype control was used as a negative control. PE conjugated Rat anti-MuIgG1 or Rat anti-MuIgG2a+b was used as the secondary detection antibody.

human FcRH5 = target: T1, human FcRH5; experiment: Affinity determination (Scatchard analysis), cells expressing human FcRH5; assay type: binding; conditions: FACS and Scatchard analysis
Procedure: To further determine binding of the FcRH5 murine antibodies and IgG clones, binding of iodinated IgG variants to OPM2 cells expressing human FcRH5 and SVT2 cells expressing cynomologous FcRH5, Scatchard analysis was performed (Table 9A).
After a four hour incubation at 4° C., cells were washed and cell pellet counts were read by a gamma counter (1470 WIZARD Automatic Gamma Counter; Perkin Elmer, Walthem, Mass.). All points were done in triplicate and counted for 10 minutes. The average CPM was used for Kd calculation using the New Ligand (Genentech, South San Francisco, Calif.) program.

Binding to cells expressing FcRH5 compared with the chimera (human FcRH5)	Molecule	Cross reactivity with cynomolgus FcRH5 by FACS analysis (cynomolgus FcRH5)
–	13G9: murine monoclonal antibody binding human FcRH5; variable chains SEQ ID NO: 18 and 20 (antibody, listed as Mus sp., V domains shown) VL: DIVMTQSQKIMSTSVGDRVNVTCKASQNVGSNVAWYHQKPGQSPKALIYSASYRYSGVPDRFTGSGSGTDFTLTISNVQSEDLAEYFCQQYKTWTFGGGTKLEIKR VH: EVQLVQSGPELKKPGETVKISCKASGYTFTNYGMNWVKQAPGKGLKWMGWVNTYTGEPTYTDDFKGRFAFSVETSASTVFLQINNLKNEDTATYFCARRSIPYYYAMDYWGQGTSLT	cross react with cynomolgus FcRH5
essentially equivalent to the chimera	hu13G9.1a: humanized 13G9 version 1; VL SEQ ID NO: 19, VH SEQ ID NO: 21 (antibody, V domains shown) VH: EVQLVQSGGGLVQPGGSLRLSCAASGYTFTNYGMNWVRQAPGKGLEWVGWVNTYTGEPTYTDDFKGRFTFSVDTSKSTVYLQMNSLRAEDTAVYYCARRSIPYYYAMDYWGQGTLVTVS VL: DIQMTQSPSSLSASVGDRVTITCKASQNVGSNVAWYQQKPGKAPKALIYSASYRYSGVPSRFSGSGSGTDFTLTISSLQPEDFATYYCQQYKTWTFGQGTKVEIKR	–
